Data reported in patent US6984774.

System: Ac transposase (Zea mays)
Assay: cell_activity
Conditions: in Arabidopsis; GUS recombination stimulated over no-Ac control; Ds excision footprint confirmed by PCR and sequencing; binding not measured directly

Ds element in GU-Ds-US construct
activity: > 1000 fold
